“Also recorded” adds a separate entry of the source.
System: young rats (10-12 weeks of age)
Assay: Long-term intra-cerebroventricular albumin perfusion in rats, telemetric ECoG recording and PSWE detection
Format: in vivo, rat
Method: All animal experiments were conducted following an ethical committee approval of the institution in which they were performed, Ben Gurion University of the Negev, Beer-Sheva, Israel or The University of California, Berkeley, Berkeley, Calif., US. Electrodes and wireless transmitters were implanted in the following animal groups: 1) Twelve weeks old (n=5) mice; 2) 18-22 months old (n=12) mice; 3) Nine to 11-weeks-old Wistar male rats implanted with 28 days long intra-cerebroventricular (ICV) perfusion osmotic pumps (N=8, 0.8 mM albumin infusion, N=5 ACSF infusion); 4) Sprague-Dawley rats (n=5, weighing 300 gr) 3 weeks after status epilepticus (SE, see below) and naïve rats (N=3). Groups 1 and 2 electrode coordinates: 0.5 mm rostral or 3.5 mm caudal and 1 mm lateral to bregma, on each side (4 screws, 2 in each hemisphere); Group 3 coordinates: 4.8 mm posterior or 2.7 mm anterior, and 2.2 mm lateral to bregma, on each side (4 screws, 2 in each hemisphere); Group 4 coordinates: 3 mm caudal and 2.5 mm lateral to bregma, on each side (2 screws, 1 in each hemisphere)). Continuous ECoG (sampling rate of 500 Hz) was recorded wirelessly from freely moving animals in their home cage for the described duration of experiments.
Signal processing was performed offline. Pre-processing included high pass filter (1 Hz), low pass filter (100 Hz) and notch (band-stop) filter (45-55 Hz). EEG human recordings were analyzed as reference to average. Human data were preprocessed by EEGLAB. Animal data were preprocessed using home-developed MATLAB (MathWorks Ltd., MA USA) scripts. To detect PSWE, ECoG or EEG signals were buffered into 2 sec long epochs with 1 sec overlap. Spectral analysis by Fast Fourier Transform (FFT) was applied and the median power frequency (MPF) was extracted for each epoch. PSWE was defined if MPF was <6 Hz for >5 consecutive seconds (see results). Analysis was performed separately for each recorded channel. Power spectrum as in FIG. 1A was calculated for the average channel and for animals ECoG data (e.g., FIG. 2A) over a single channel. FFT was also applied for the entire recording period buffered into 8 seconds epoch with 4 seconds overlap to analyze relative power across the frequency spectrum of 1-20 Hz. Processing was performed by self-developed MATLAB scripts.
The inventors next recorded ECoG from young rats (10-12 weeks of age) exposed to ICV albumin (N=8), compared to animals exposed to ACSF (controls, N=5).

[1] = ECoG spectral analysis, long-term albumin N=8 vs ACSF N=5

B1: albumin (protein, UniProt P02770 25-608, looked up)
Albumin: EAHKSEIAHRFKDLGEQHFKGLVLIAFSQYLQKCPYEEHIKLVQEVTDFAKTCVADENAENCDKSIHTLFGDKLCAIPKLRDNYGELADCCAKQEPERNECFLQHKDDNPNLPPFQRPEAEAMCTSFQENPTSFLGHYLHEVARRHPYFYAPELLYYAEKYNEVLTQCCTESDKAACLTPKLDAVKEKALVAAVRQRMKCSSMQRFGERAFKAWAVARMSQRFPNAEFAEITKLATDVTKINKECCHGDLLECADDRAELAKYMCENQATISSKLQACCDKPVLQKSQCLAEIEHDNIPADLPSIAADFVEDKEVCKNYAEAKDVFLGTFLYEYSRRHPDYSVSLLLRLAKKYEATLEKCCAEGDPPACYGTVLAEFQPLVEEPKNLVKTNCELYEKLGEYGFQNAVLVRYTQKAPQVSTPTLVEAARNLGRVGTKCCTLPEAQRLPCVEDYLSAILNRLCVLHEKTPVSEKVTKCCSGSLVERRPCFSALTVDETYVPKEFKAETFTFHSDICTLPDKEKQIKKQTALAELVKHKPKATEDQLKTVMGDFAQFVDKCCKAADKDNCFATEGPNLVARSKEALA
notes: serum protein infused ICV (0.8 mM, 28 days) in rats as a model of chronic BBB disruption
relative power in alpha (8-12 Hz) band compared with ACSF-injected animals [1]: significantly lower | relative power in beta (12-20 Hz) band compared with ACSF-injected animals [1]: significantly lower | relative power in the delta (1-5 Hz) band compared with ACSF-injected animals [1]: significantly greater | occurrence per minute of PSWEs, albumin-injected hemisphere compared with the non-injected hemisphere (ICV osmotic pump, right lateral ventricle, four weeks after onset of perfusion, ipsilateral vs contralateral, N=8): significantly higher; also recorded: more common | PSWE duration compared with the ACSF treated group (albumin treated group vs ACSF): significantly longer | PSWE median frequency compared with the ACSF treated group (albumin treated group vs ACSF): slower; also recorded: significantly lower | occurrence per minute of PSWEs, albumin-injected hemisphere compared with ACSF-injected controls (four weeks after onset of perfusion, albumin N=8 vs ACSF N=5): significantly higher; also recorded: more common | higher occurrence per minute of PSWEs detected at one week (one week after onset of perfusion): not at one week
